In CN107773755A:

How the values were obtained:
抗体BA03-A [1] = experiment: binding ELISA on coated BA03-A, relative activity vs reference; formulation F3 after 8 weeks at 40 C
抗体BA03-A [2] = experiment: binding ELISA on coated BA03-A, relative activity vs reference; formulations after 8 weeks at 2-8 C
抗体BA03-A [3] = experiment: binding ELISA on coated BA03-A, relative activity vs reference; formulations after 4 weeks at 40 C
抗体BA03-A [4] = experiment: binding ELISA on coated BA03-A, relative activity vs reference; formulations F1-F11 at T0
抗体BA03-A [5] = experiment: binding ELISA on coated BA03-A, relative activity vs reference; formulation F7 after 8 weeks at 40 C
抗体BA03-A [6] = experiment: binding ELISA on coated BA03-A, relative activity vs reference; formulation F8 after 8 weeks at 40 C

活性 (Binding elisa, % relative to the reference) (抗体BA03-A [1]): 89.7%
结合活性 (Binding elisa, % relative to the reference) (抗体BA03-A [2]): 93.3 to 111%
生物活性 (Binding elisa, % relative to the reference) (抗体BA03-A [3]): 47.3 to 102%
生物活性 (Binding elisa, % relative to the reference) (抗体BA03-A [4]): 97.1 to 105%
活性 (Binding elisa, % relative to the reference) (抗体BA03-A [5]): 55.2%
活性 (Binding elisa, % relative to the reference) (抗体BA03-A [6]): 91.7%
B1: 抗体BA03 (重组人源化抗表皮生长因子受体单克隆抗体) (antibody, V domains shown)
VH: QVQLQESGPGLVKPSETLSLTCTVSGFSLSNYDVHWVRQAPGKGLEWLGVIWSGGNTDYNTPFTSRLTISVDTSKNQFSLKLSSVTAADTAVYYCARALDYYDYEFAYWGQGTLVTVSS
VL: EIVLTQSPDFQSVTPKEKVTITCRASQSIGTNIHWYQQKPDQSPKLLIKYASESISGIPSRFSGSGSGTDFTLTINSLEAEDAATYYCQQNNEWPTSFGQGTKLEIK
